Earlier results in US20090023631A1, “Composition and Method of Use for Soft Tissue Augmentation/Drug Delivery” (priority 2007, published 2009).

Tested on: stage III and IV ulcers
Conditions: multiple studies

B1: recombinant human PDGF-BB: platelet-derived growth factor, commercial product available as recombinant human PDGF-BB (protein, UniProt P01127 82-190, looked up)
Platelet-derived growth …: SLGSLTIAEPAMIAECKTRTEVFEISRRLIDRTNANFLVWPPCVEVQRCSGCCNNRNVQCRPTQVQLRPVQVRKIEIVRKKPIFKKATVTLEDHLACKCETVAAARPVT
modifications: BB homodimer
In the case of B1, the healing time is listed as “reduce healing time” and the “incidence of complete wound healing” value is listed as “improve the incidence of complete wound healing”.
